According to US20260217835A1 (published 2026):
Where a chain is given by its changes, count along the chain named. Names may count otherwise.

B1: IgG4 full-length heavy chain with T366W/L368A/Y407V (SEQ ID NO: 94) with light chain SEQ ID NO: 61 (antibody)
heavy: QVQLQESGPGLVRPSQTLSLTCTVSGYSITSDHAWSWVRQPPGRGLEWIGYISYSGITTYNPSLKSRVTMLRDTSKNQFSLRLSSVTAADTAVYYCARSLARTTAMDYWGQGSLVTVSSASTKGPSVFPLAPCSRSTSESTAALGCLVKDYFPEPVTVSWNSGALTSGVHTFPAVLQSSGLYSLSSVVTVPSSSLGTKTYTCNVDHKPSNTKVDKRVESKYGPPCPPCPAPEFLGGPSVFLFPPKPKDTLMISRTPEVTCVVVDVSQEDPEVQFNWYVDGVEVHNAKTKPREEQFNSTYRVVSVLTVLHQDWLNGKEYKCKVSNKGLPSSIEKTISKAKGQPREPQVYTLPPSQEEMTKNQVSLWCAVKGFYPSDIAVEWESNGQPENNYKTTPPVLDSDGSFFLVSRLTVDKSRWQEGNVFSCSVMHEALHNHYTQKSLSLSL
light: not shown
B2: IgG4 full-length heavy chain K392D/D399K/R409D (SEQ ID NO: 97) with light chain SEQ ID NO: 61 (antibody)
heavy: B1 heavy with W365T, A367L, K391D, D398K, V406Y, R408D
light: not shown
B3: IgG4 full-length heavy chain K392L/T394W/F405A/Y407V (SEQ ID NO: 96) with light chain SEQ ID NO: 61 (antibody)
heavy: B1 heavy with W365T, A367L, K391L, T393W, F404A
light: not shown
B4: IgG4 full-length heavy chain Q347R/K360E/D399V/F405T/R409W (SEQ ID NO: 95) with light chain SEQ ID NO: 61 (antibody)
heavy: B1 heavy with Q346R, K359E, W365T, A367L, D398V, F404T, V406Y, R408W
light: not shown
B5: IgG4 full-length heavy chain with T394W/F405A (SEQ ID NO: 93) with light chain SEQ ID NO: 61 (antibody)
heavy: B1 heavy with W365T, A367L, T393W, F404A, V406Y
light: not shown
B6: IgG2 full-length heavy chain E345R/Q347R/K360D/T366V/D399M/Y407A/K409V (SEQ ID NO: 100) with light chain SEQ ID NO: 61 (antibody)
heavy: QVQLQESGPGLVRPSQTLSLTCTVSGYSITSDHAWSWVRQPPGRGLEWIGYISYSGITTYNPSLKSRVTMLRDTSKNQFSLRLSSVTAADTAVYYCARSLARTTAMDYWGQGSLVTVSSASTKGPSVFPLAPCSRSTSESTAALGCLVKDYFPEPVTVSWNSGALTSGVHTFPAVLQSSGLYSLSSVVTVPSSNFGTQTYTCNVDHKPSNTKVDKTVERKCCVECPPCPAPPVAGPSVFLFPPKPKDTLMISRTPEVTCVVVDVSHEDPEVQFNWYVDGVEVHNAKTKPREEQFNSTFRVVSVLTVVHQDWLNGKEYKCKVSNKGLPAPIEKTISKTKGQPRRPRVYTLPPSREEMTDNQVSLVCLVKGFYPSDIAVEWESNGQPENNYKTTPPMLMSDGSFFLASVLTVDKSRWQQGNVFSCSVMHEALHNHYTQKSLSLSP
light: not shown
notes: also called Sample No. 234
B7: IgG2 full-length heavy chain with K392D/D399K/K409D (SEQ ID NO: 91) with light chain SEQ ID NO: 61 (antibody)
heavy: B6 heavy with R343E, R345Q, D358K, V364T, K390D, M397K, A405Y, V407D
light: not shown
notes: also called Sample No. 212 full-length heavy chain
B8: IgG2 full-length heavy chain with Q347R/K360E/D399V/F405T/K409W (SEQ ID NO: 89) with light chain SEQ ID NO: 61 (antibody)
heavy: B6 heavy with R343E, D358E, V364T, M397V, F403T, A405Y, V407W
light: not shown
notes: also called Sample No. 210 full-length heavy chain
B9: IgG2 full-length heavy chain with K392L/T394W/F405A/Y407V (SEQ ID NO: 90) with light chain SEQ ID NO: 61 (antibody)
heavy: B6 heavy with R343E, R345Q, D358K, V364T, K390L, T392W, M397D, F403A, A405V, V407K
light: not shown
B10: IgG2 full-length heavy chain Q347E/S354Y/T366Y/Y407T (SEQ ID NO: 99) with light chain SEQ ID NO: 61 (antibody)
heavy: B6 heavy with R343E, R345E, S352Y, D358K, V364Y, M397D, A405T, V407K
light: not shown
notes: also called Sample No. 233
B11: IgG2 full-length heavy chain with T394W/F405A (SEQ ID NO: 87) with light chain SEQ ID NO: 61 (antibody)
heavy: B6 heavy with R343E, R345Q, D358K, V364T, T392W, M397D, F403A, A405Y, V407K
light: not shown
notes: also called Sample No. 208 full-length heavy chain
B12: IgG2 full-length heavy chain with T366W/L368A/Y407V (SEQ ID NO: 88) with light chain SEQ ID NO: 61 (antibody)
heavy: B6 heavy with R343E, R345Q, D358K, V364W, L366A, M397D, A405V, V407K
light: not shown
B13: IgG1 full-length heavy chain with T366W/L368A/Y407V (SEQ ID NO: 26) with light chain SEQ ID NO: 61 (antibody)
heavy: QVQLQESGPGLVRPSQTLSLTCTVSGYSITSDHAWSWVRQPPGRGLEWIGYISYSGITTYNPSLKSRVTMLRDTSKNQFSLRLSSVTAADTAVYYCARSLARTTAMDYWGQGSLVTVSSASTKGPSVFPLAPSSKSTSGGTAALGCLVKDYFPEPVTVSWNSGALTSGVHTFPAVLQSSGLYSLSSVVTVPSSSLGTQTYICNVNHKPSNTKVDKRVEPKSCDKTHTCPPCPAPELLGGPSVFLFPPKPKDTLMISRTPEVTCVVVDVSHEDPEVKFNWYVDGVEVHNAKTKPREEQYNSTYRVVSVLTVLHQDWLNGKEYKCKVSNKALPAPIEKTISKAKGQPREPQVYTLPPSREEMTKNQVSLWCAVKGFYPSDIAVEWESNGQPENNYKTTPPVLDSDGSFFLVSKLTVDKSRWQQGNVFSCSVMHEALHNHYTQKSLSLSP
light: not shown
B14: IgG1 full-length heavy chain E356K/K392D/D399K/K409D (SEQ ID NO: 56) with light chain SEQ ID NO: 61 (antibody)
heavy: B13 heavy with E358K, W368T, A370L, K394D, D401K, V409Y, K411D
light: not shown
notes: also called Sample No. 229
B15: IgG1 full-length heavy chain Q347E/S354Y/T366Y/Y407T (SEQ ID NO: 39) with light chain SEQ ID NO: 61 (antibody)
heavy: B13 heavy with Q349E, S356Y, W368Y, A370L, V409T
light: not shown
B16: IgG1 full-length heavy chain K392D/D399K/K409D (SEQ ID NO: 50) with light chain SEQ ID NO: 61 (antibody)
heavy: B13 heavy with W368T, A370L, K394D, D401K, V409Y, K411D
light: not shown
B17: IgG1 full-length heavy chain T366W/L368A/Y407V (SEQ ID NO: 26) with light chain SEQ ID NO: 61 (antibody)
heavy: B13 heavy
light: not shown
B18: IgG1 full-length heavy chain E356K/K392D/D399K/K439E (SEQ ID NO: 48) with light chain SEQ ID NO: 61 (antibody)
heavy: B13 heavy with E358K, W368T, A370L, K394D, D401K, V409Y, K441E
light: not shown
B19: IgG1 full-length heavy chain E356K/D399K/K409E/K439E (SEQ ID NO: 36) with light chain SEQ ID NO: 61 (antibody)
heavy: B13 heavy with E358K, W368T, A370L, D401K, V409Y, K411E, K441E
light: not shown
B20: IgG1 full-length heavy chain T350V/L351Y/T366L/K392L/T394W/F405A/Y407V (SEQ ID NO: 60) with light chain SEQ ID NO: 61 (antibody)
heavy: B13 heavy with T352V, L353Y, W368L, A370L, K394L, T396W, F407A
light: not shown
B21: IgG1 full-length heavy chain K392L/T394W/F405A/Y407V (SEQ ID NO: 41) with light chain SEQ ID NO: 61 (antibody)
heavy: B13 heavy with W368T, A370L, K394L, T396W, F407A
light: not shown
notes: also called Sample No. 225
B22: IgG1 full-length heavy chain E345R/K360E/D399M/Y407A/K409V (SEQ ID NO: 58) with light chain SEQ ID NO: 61 (antibody)
heavy: B13 heavy with E347R, K362E, W368T, A370L, D401M, V409A, K411V
light: not shown
notes: also called Sample No. 230
B23: IgG1 full-length heavy chain E345R/Q347R/K360D/T366V/D399M/Y407A/K409V (SEQ ID NO: 55) with light chain SEQ ID NO: 61 (antibody)
heavy: B13 heavy with E347R, Q349R, K362D, W368V, A370L, D401M, V409A, K411V
light: not shown
B24: IgG1 full-length heavy chain Q347R/K360E/D399V/F405T/K409W (SEQ ID NO: 31) with light chain SEQ ID NO: 61 (antibody)
heavy: B13 heavy with Q349R, K362E, W368T, A370L, D401V, F407T, V409Y, K411W
light: not shown
B25: L234F/L235E/P331S (suppress FcγR binding) Fc fragment with T394W/F405A, SEQ ID NO: 600 (other)
chain: DKTHTCPPCPAPEFEGGPSVFLFPPKPKDTLMISRTPEVTCVVVDVSHEDPEVKFNWYVDGVEVHNAKTKPREEQYNSTYRVVSVLTVLHQDWLNGKEYKCKVSNKALPASIEKTISKAKGQPREPQVYTLPPSREEMTKNQVSLTCLVKGFYPSDIAVEWESNGQPENNYKTWPPVLDSDGSFALYSKLTVDKSRWQQGNVFSCSVMHEALHNHYTQKSLSLSP
B26: L234F/L235E/P331S (suppress FcγR binding) Fc fragment with T366W/L368A/Y407V, SEQ ID NO: 601 (other)
chain: B25 chain with T146W, L148A, W174T, A185F, Y187V
B27: L234F/L235E/P331S (suppress FcγR binding) Fc fragment with Q347R/K360E/D399V/F405T/K409W, SEQ ID NO: 602 (other)
chain: B25 chain with Q127R, K140E, W174T, D179V, A185T, K189W

Experiments:
[1] = biological target: the molecule itself; test: SEC peak area ratio after coexpression of full-length heavy chain, light chain and Fc fragment
[2] = biological target: T1, IgG2 Fc fragment without modification (SEQ ID NO: 103) (Homo sapiens (Human), UniProt P01859 99-324 = IgG part); test: co-expression of full-length heavy chain, light chain and Fc fragment in Expi293F, affinity purification, SEC peak area ratio;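 also: purified antibodies analysed by size exclusion chromatography with UV detection at 215 nm, each species given as share of total chromatogram peak area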
T1 construct: Fc fragment co-expressed with a full-length heavy chain and the light chain; the associating unit is one Fc chain; also called WT-IgG2 Fc fragment

[3] = biological target: the molecule itself; test: as above
[4] = biological target: the molecule itself; test: SEC peak area ratio; full-length heavy chain, light chain and Fc fragment coexpressed in Expi293F, Protein A purified

Binder	Homo full-length heavy chain (%) [1] [%]	Heteromultimer (%) [2] [%]	Homo full-length heavy chain (%) [3] [%]	Homo Fc fragment (%) [4] [%]
B1	83			
B2		0	82.5	
B3		0	81.5	
B4		0	83.5	
B5	82			
B6		0	76.1	
B7	79.6			
B8	80.4			
B9	78.5			
B10		0	76.3	
B11	80.8			
B12	80			
B13	73.8			
B14		0	81.4	
B15		0	82.9	
B16		0	81.4	
B17		0	85.3	
B18		0	85.1	
B19		0	84.3	
B20		0	85.8	
B21		0	83.8	
B22		0	84.3	
B23		0	83.5	
B24		0	82.7	
B25				37.9
B26				39.3
B27				38.8
